Data from the supplement of paper PMC9112550, “Optimization of the antimicrobial peptide Bac7 by deep mutational scanning” (BMC Biology, 2022).

Test system: Escherichia coli TOP10
Experiment: shrunken log2 fold change of peptide-encoding DNA abundance (4.5 h post-induction vs induction); higher = less antimicrobial activity (less host growth inhibition)
Conditions: time post-induction: 4.5 h; library: site-saturation at positions 5, 18, 19, 20
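Also: peptides expressed intracellularly from a pBAD plasmid library in pooled LB shake-flask culture, induced with 0.3% L-arabinose, DNA abundance read by NGS, three biological replicates, DESeq2 with apeglm shrinkage.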

Sequence	shrunken log2 fold change
RRIRPRPPRLPRPRPRPYAHPRP	-0.0338
RRIRPRPPRLPRPRPRPYAKPRP	0.258
RRIRPRPPRLPRPRPRPYAYPRP	-0.192
RRIRPRPPRLPRPRPRPYDEPRP	-0.0606
RRIRPRPPRLPRPRPRPYESPRP	-0.186
RRIRPRPPRLPRPRPRPYGFPRP	-0.426
RRIRPRPPRLPRPRPRPYGNPRP	-0.79
RRIRPRPPRLPRPRPRPYGVPRP	-0.157
RRIRPRPPRLPRPRPRPYHCPRP	-0.0484
RRIRPRPPRLPRPRPRPYIPPRP	-0.719
RRIRPRPPRLPRPRPRPYIQPRP	-0.375
RRIRPRPPRLPRPRPRPYIYPRP	-0.518
RRIRPRPPRLPRPRPRPYMCPRP	-0.714
RRIRPRPPRLPRPRPRPYMSPRP	-0.636
RRIRPRPPRLPRPRPRPYNPPRP	-0.84
RRIRPRPPRLPRPRPRPYQEPRP	-0.418
RRIRPRPPRLPRPRPRPYQFPRP	-0.114
RRIRPRPPRLPRPRPRPYQWPRP	-0.124
RRIRPRPPRLPRPRPRPYRKPRP	0.0208
RRIRPRPPRLPRPRPRPYRPPRP	-0.257
RRIRPRPPRLPRPRPRPYRRPRP	-0.198
RRIRPRPPRLPRPRPRPYSEPRP	0.0371
RRIRPRPPRLPRPRPRPYTIPRP	0.00679
RRIRPRPPRLPRPRPRPYVVPRP	-0.307
RRIRPRPPRLPRPRPRPYWKPRP	-0.189

Sequence	shrunken log2 fold change
RRIRPRPPRLPRPRPRPYWQPRP	0.0184
RRIRPRPPRLPRPRPRPYYAPRP	-0.709
RRIRPRPPRLPRPRPRPYYCPRP	-0.718
RRIRPRPPRLPRPRPRPYYQPRP	-0.496
RRIRPRPPRLPRPRPRPYYRPRP	-0.178
RRIRQRPPRLPRPRPRPAARPRP	0.246
RRIRQRPPRLPRPRPRPACAPRP	0.587
RRIRQRPPRLPRPRPRPACFPRP	0.315
RRIRQRPPRLPRPRPRPADRPRP	0.0738
RRIRQRPPRLPRPRPRPADVPRP	0.0705
RRIRQRPPRLPRPRPRPAEAPRP	0.61
RRIRQRPPRLPRPRPRPAGFPRP	0.266
RRIRQRPPRLPRPRPRPAGKPRP	0.0246
RRIRQRPPRLPRPRPRPAGNPRP	-0.0449
RRIRQRPPRLPRPRPRPAGTPRP	0.134
RRIRQRPPRLPRPRPRPAHKPRP	-0.0849
RRIRQRPPRLPRPRPRPAHNPRP	-0.0225
RRIRQRPPRLPRPRPRPAIKPRP	-0.316
RRIRQRPPRLPRPRPRPAINPRP	-0.171
RRIRQRPPRLPRPRPRPAKLPRP	0.0771
RRIRQRPPRLPRPRPRPAKRPRP	0.0228
RRIRQRPPRLPRPRPRPAKTPRP	-0.0724
RRIRQRPPRLPRPRPRPALPPRP	0.397
RRIRQRPPRLPRPRPRPANIPRP	-0.275
RRIRQRPPRLPRPRPRPANKPRP	-0.397

Sequence	shrunken log2 fold change
RRIRQRPPRLPRPRPRPANMPRP	-0.242
RRIRQRPPRLPRPRPRPAPNPRP	0.561
RRIRQRPPRLPRPRPRPAQQPRP	0.00707
RRIRQRPPRLPRPRPRPAQWPRP	0.166
RRIRQRPPRLPRPRPRPARPPRP	0.516
RRIRQRPPRLPRPRPRPATAPRP	0.115
RRIRQRPPRLPRPRPRPATPPRP	0.331
RRIRQRPPRLPRPRPRPAVVPRP	0.242
RRIRQRPPRLPRPRPRPAWFPRP	0.162
RRIRQRPPRLPRPRPRPAWGPRP	0.34
RRIRQRPPRLPRPRPRPAYRPRP	-0.216
RRIRQRPPRLPRPRPRPCAQPRP	0.308
RRIRQRPPRLPRPRPRPCCQPRP	-0.00534
RRIRQRPPRLPRPRPRPCCSPRP	-0.0854
RRIRQRPPRLPRPRPRPCDKPRP	0.244
RRIRQRPPRLPRPRPRPCEMPRP	-0.00121
RRIRQRPPRLPRPRPRPCFMPRP	0.628
RRIRQRPPRLPRPRPRPCGFPRP	-0.0124
RRIRQRPPRLPRPRPRPCGRPRP	0.411
RRIRQRPPRLPRPRPRPCHMPRP	-0.519
RRIRQRPPRLPRPRPRPCIGPRP	-0.204
RRIRQRPPRLPRPRPRPCINPRP	-0.0449
RRIRQRPPRLPRPRPRPCKIPRP	-0.0788
RRIRQRPPRLPRPRPRPCKQPRP	0.0108
RRIRQRPPRLPRPRPRPCLDPRP	-0.0986

Sequence	shrunken log2 fold change
RRIRQRPPRLPRPRPRPCMPPRP	-0.27
RRIRQRPPRLPRPRPRPCMQPRP	-0.238
RRIRQRPPRLPRPRPRPCNLPRP	0.0555
RRIRQRPPRLPRPRPRPCNWPRP	0.0183
RRIRQRPPRLPRPRPRPCNYPRP	0.00177
RRIRQRPPRLPRPRPRPCQHPRP	0.0738
RRIRQRPPRLPRPRPRPCQNPRP	-0.173
RRIRQRPPRLPRPRPRPCRHPRP	-0.000946
RRIRQRPPRLPRPRPRPCRSPRP	0.00709
RRIRQRPPRLPRPRPRPCSCPRP	0.0297
RRIRQRPPRLPRPRPRPCSWPRP	0.171
RRIRQRPPRLPRPRPRPCTPPRP	-0.141
RRIRQRPPRLPRPRPRPCTQPRP	-0.0306
RRIRQRPPRLPRPRPRPCWLPRP	0.0947
RRIRQRPPRLPRPRPRPCYDPRP	-0.357
RRIRQRPPRLPRPRPRPCYYPRP	-0.265
RRIRQRPPRLPRPRPRPDAQPRP	-9.3e-05
RRIRQRPPRLPRPRPRPDATPRP	0.495
RRIRQRPPRLPRPRPRPDAVPRP	-0.0012
RRIRQRPPRLPRPRPRPDCDPRP	-0.0763
RRIRQRPPRLPRPRPRPDCRPRP	0.0305
RRIRQRPPRLPRPRPRPDENPRP	0.106
RRIRQRPPRLPRPRPRPDEPPRP	-0.0062
RRIRQRPPRLPRPRPRPDEVPRP	0.0037
RRIRQRPPRLPRPRPRPDFCPRP	-0.129

Sequence	shrunken log2 fold change
RRIRQRPPRLPRPRPRPDFDPRP	-0.0668
RRIRQRPPRLPRPRPRPDIMPRP	-0.136
RRIRQRPPRLPRPRPRPDKKPRP	-0.0704
RRIRQRPPRLPRPRPRPDLWPRP	0.514
RRIRQRPPRLPRPRPRPDMAPRP	0.0464
RRIRQRPPRLPRPRPRPDMCPRP	-0.225
RRIRQRPPRLPRPRPRPDMGPRP	0.0191
RRIRQRPPRLPRPRPRPDRNPRP	-0.176
RRIRQRPPRLPRPRPRPDSFPRP	0.0109
RRIRQRPPRLPRPRPRPDWFPRP	-0.104
RRIRQRPPRLPRPRPRPDYKPRP	-0.0788
RRIRQRPPRLPRPRPRPDYWPRP	0.156
RRIRQRPPRLPRPRPRPDYYPRP	-0.0251
RRIRQRPPRLPRPRPRPEAGPRP	0.109
RRIRQRPPRLPRPRPRPEALPRP	-0.0434
RRIRQRPPRLPRPRPRPEASPRP	-0.0802
RRIRQRPPRLPRPRPRPECFPRP	0.398
RRIRQRPPRLPRPRPRPECGPRP	0.238
RRIRQRPPRLPRPRPRPEDAPRP	-0.132
RRIRQRPPRLPRPRPRPEEIPRP	0.0447
RRIRQRPPRLPRPRPRPEFQPRP	-0.0764
RRIRQRPPRLPRPRPRPEHEPRP	0.0155
RRIRQRPPRLPRPRPRPEHFPRP	0.0746
RRIRQRPPRLPRPRPRPEHNPRP	-0.137
RRIRQRPPRLPRPRPRPEHVPRP	0.00725

Sequence	shrunken log2 fold change
RRIRQRPPRLPRPRPRPEINPRP	-0.15
RRIRQRPPRLPRPRPRPEIVPRP	0.143
RRIRQRPPRLPRPRPRPEKRPRP	0.00771
RRIRQRPPRLPRPRPRPEMKPRP	-0.0789
RRIRQRPPRLPRPRPRPEMNPRP	0.0404
RRIRQRPPRLPRPRPRPEMYPRP	-0.173
RRIRQRPPRLPRPRPRPENYPRP	0.309
RRIRQRPPRLPRPRPRPEPRPRP	0.508
RRIRQRPPRLPRPRPRPEQTPRP	0.0148
RRIRQRPPRLPRPRPRPEQYPRP	-0.0417
RRIRQRPPRLPRPRPRPERGPRP	0.105
RRIRQRPPRLPRPRPRPERHPRP	0.181
RRIRQRPPRLPRPRPRPESAPRP	0.208
RRIRQRPPRLPRPRPRPEVIPRP	-0.00663
RRIRQRPPRLPRPRPRPEVTPRP	-0.0614
RRIRQRPPRLPRPRPRPEYDPRP	-0.168
RRIRQRPPRLPRPRPRPEYFPRP	-0.0285
RRIRQRPPRLPRPRPRPEYGPRP	-0.0248
RRIRQRPPRLPRPRPRPFAHPRP	-0.0959
RRIRQRPPRLPRPRPRPFCAPRP	0.184
RRIRQRPPRLPRPRPRPFCFPRP	0.117
RRIRQRPPRLPRPRPRPFDTPRP	-0.144
RRIRQRPPRLPRPRPRPFEAPRP	-0.0497
RRIRQRPPRLPRPRPRPFFRPRP	-0.236
RRIRQRPPRLPRPRPRPFHAPRP	-0.117
